From article PMC6791870, “Switch of the interactions between the ribosomal stalk and EF1A in the GTP- and GDP-bound conformations” (Scientific Reports, 2019)
Primed or numbered codes have the meaning given here. Where no end group is shown, it is not given here. FITC′ = fluorescein isothiocyanate label

T1: Aeropyrum pernix elongation factor aEF1A (ApeEF1A) (Aeropyrum pernix, UniProt Q9YAV0 1-437)
T1 construct: elongation factor 1-alpha (aEF1A) of Aeropyrum pernix; also called ApeEF1A•GTP; wild type ApeEF1A
T1 sequence (looked up): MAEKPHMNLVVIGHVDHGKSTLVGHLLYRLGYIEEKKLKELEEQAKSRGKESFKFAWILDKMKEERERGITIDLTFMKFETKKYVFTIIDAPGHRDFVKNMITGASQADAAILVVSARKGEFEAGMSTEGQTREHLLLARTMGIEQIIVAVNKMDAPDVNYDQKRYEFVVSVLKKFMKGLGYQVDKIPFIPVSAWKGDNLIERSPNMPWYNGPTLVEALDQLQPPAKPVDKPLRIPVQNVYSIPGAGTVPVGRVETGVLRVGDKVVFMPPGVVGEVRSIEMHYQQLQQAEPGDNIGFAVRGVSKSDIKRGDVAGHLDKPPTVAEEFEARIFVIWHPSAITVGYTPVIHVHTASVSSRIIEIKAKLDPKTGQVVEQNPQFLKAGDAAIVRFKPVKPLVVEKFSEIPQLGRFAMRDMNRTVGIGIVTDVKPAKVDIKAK

T2: Pyrococcus horikoshii elongation factor aEF1A (PhoEF1A) (P. horikoshii, UniProt O59153 1-428)
T2 construct: elongation factor 1-alpha (aEF1A) of Pyrococcus horikoshii; the nucleotide is named in the assay's format; also called PhoEF1A•GTP; PhoEF1A•GDP
T2 sequence: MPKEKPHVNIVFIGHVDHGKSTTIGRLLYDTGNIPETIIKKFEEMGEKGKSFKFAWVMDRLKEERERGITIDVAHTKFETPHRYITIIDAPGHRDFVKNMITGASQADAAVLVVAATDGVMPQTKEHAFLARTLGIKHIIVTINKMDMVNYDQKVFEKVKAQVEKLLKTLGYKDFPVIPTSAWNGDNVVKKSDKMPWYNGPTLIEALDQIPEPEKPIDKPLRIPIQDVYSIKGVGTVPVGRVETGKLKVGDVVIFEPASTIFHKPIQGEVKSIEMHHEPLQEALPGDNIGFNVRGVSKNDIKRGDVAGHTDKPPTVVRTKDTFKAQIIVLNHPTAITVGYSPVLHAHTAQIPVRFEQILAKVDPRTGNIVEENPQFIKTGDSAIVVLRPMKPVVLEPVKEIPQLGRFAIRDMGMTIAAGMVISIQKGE

T3: PhoEF1A•GTP•PfuPelota complex (P. horikoshii | Pyrococcus furiosus, UniProt O59153 1-428; Q8U150 1-356)
T3 construct: aPelota of Pyrococcus furiosus; Complex of m2 (GTP form) and m3, titrated as a complex in fluorescence polarisation; also called aEF1A•GTP•aPelota; source: E. coli, each protein purified, then complexed with GTP
T3 sequence 1: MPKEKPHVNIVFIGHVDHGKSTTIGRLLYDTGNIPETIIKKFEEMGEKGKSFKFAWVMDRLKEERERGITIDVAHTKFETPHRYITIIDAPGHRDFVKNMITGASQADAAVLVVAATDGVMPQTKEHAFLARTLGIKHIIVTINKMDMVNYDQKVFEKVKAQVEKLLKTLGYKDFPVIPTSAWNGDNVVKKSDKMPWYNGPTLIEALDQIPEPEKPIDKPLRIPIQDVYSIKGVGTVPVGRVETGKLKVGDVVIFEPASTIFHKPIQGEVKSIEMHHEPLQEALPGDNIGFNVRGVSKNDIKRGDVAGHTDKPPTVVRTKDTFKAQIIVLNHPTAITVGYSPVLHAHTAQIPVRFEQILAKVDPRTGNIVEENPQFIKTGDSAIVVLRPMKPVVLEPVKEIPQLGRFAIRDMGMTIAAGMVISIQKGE
T3 sequence 2: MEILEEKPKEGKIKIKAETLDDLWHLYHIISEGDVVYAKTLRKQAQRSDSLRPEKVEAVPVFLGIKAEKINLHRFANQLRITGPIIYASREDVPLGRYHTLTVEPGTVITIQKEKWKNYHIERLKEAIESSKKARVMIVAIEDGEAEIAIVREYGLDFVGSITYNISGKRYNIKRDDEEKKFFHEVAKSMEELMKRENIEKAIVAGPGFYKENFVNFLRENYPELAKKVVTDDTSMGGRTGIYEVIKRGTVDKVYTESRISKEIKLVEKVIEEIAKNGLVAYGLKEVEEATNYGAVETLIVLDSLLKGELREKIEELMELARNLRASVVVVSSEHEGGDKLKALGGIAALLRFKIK


Experiments:
Details in all cases: both partners purified
[1] = target: T1, Aeropyrum pernix elongation factor …; experiment: crystal structure; ApeP1C17•ApeEF1A•GTP•ApePelota complex, sitting drop vapor diffusion at 20 °C, 3.0 Å
[2] = target: T1, Aeropyrum pernix elongation factor …; experiment: pull-down; MBP-P1 fusion held on amylose resin; EF1A (1,000 pmol), Pelota (1,000 pmol) and equal amounts of MBP-P1 in 100 µl PD buffer (25 mM Tris-HCl pH 8.0, 200 mM NaCl, 10 mM MgCl2, 1 mM GTP), 4 °C, 90 min; eluted with 50 mM maltose; SDS-PAGE, CBB staining
[3] = target: T2, Pyrococcus horikoshii elongation factor …; experiment: as above
[4] = target: T2, Pyrococcus horikoshii elongation factor …; experiment: fluorescence polarisation; FITC-labelled PhoP1C14 with increasing PhoEF1A•GDP complex; same assay as for the GTP complex
[5] = target: T3, PhoEF1A•GTP•PfuPelota complex; experiment: fluorescence polarisation; FITC-labelled peptide (50 nM) with 0-160 µM PhoEF1A•GTP•PfuPelota complex in FP buffer (20 mM HEPES-KOH pH 7.6, 10 mM MgCl2, 150 mM KCl, 0.1 mg/ml BSA), 25 °C; one site specific binding fit

Row | Binder | binding result [1] | binding result [3] | other results
1 | KKEEEVDLSGLSGMFGF (C-terminal 17 residues of Aeropyrum pernix ribosomal stalk protein aP1 (ends at F111); also called aP1C17; aP1-CTD; source: synthetic peptide (Hokkaido System Science)) [C-terminal 17-mer peptide of A. pernix aP1 (ApeP1C17)] | binds |  | 
2 | EEEVDLSGLSGMFGF (domain or fragment, Vector pMAL-c4x, EcoRI-PstI; not shown: MBP, N-terminal, kept) [N-terminal MBP fused with the C-terminal 15 amino acid residues of A. pernix aP1 (MBP-ApeP1C15)] |  |  | binding result [2]: binds
3 | Aeropyrum pernix aPelota (ApePelota) (natural protein, A. pernix, UniProt Q9YAZ5 1-356, looked up, aPelota of Aeropyrum pernix) MRVEVLDNKRRIVRLRPESEEDLWLLRITLRPGDVVRIRTSRDVPVGSGRKERVVMTLRIRLDSIEFQPFTGKLRISGIVVEGPDEFGVKGRRHSTAVSIGTWLVVERDKGWSEQELERLASGRARGTAVIAAVDYDEFALAVLAGHGMKILEDTSARLPGKDDPSREQEVEKYVDRAAKRIVEEAARHRSPIAVIAGPGQLKTSVAEKVQRAMPSLKVATVDTSMGGVAGVREALRRESVTRILRELSIVEAEGVLEEFLRRIAKSRDTVAYTPGEVLAVARMGAVDTVLLVDTLLHSPDDAVREAVDEALRLVESMGGRVIIIPGDSPAGERLVSFGGVIALLRYPVPQEARRL | binds |  | 
4 | {FITC′}-SEEEALAGLSALFG (C-terminal 14 residues of P. horikoshii ribosomal stalk protein aP1 (last residues L106, F107, G108); also called WT; C-terminal peptide; source: synthetic peptide (Hokkaido System Science)) [C-terminal 14-mer peptide of P. horikoshii aP1 (PhoP1C14), FITC-labelled] |  |  | Kd [4]: 10.4 µM; Kd [5]: 23.6 µM

Continued, in another order:

Row | binding result [1] | binding result [3] | Binder | other results
5 |  | binds | Pyrococcus furiosus aPelota (PfuPelota) (natural protein, UniProt Q8U150 1-356, looked up, aPelota of Pyrococcus furiosus) MEILEEKPKEGKIKIKAETLDDLWHLYHIISEGDVVYAKTLRKQAQRSDSLRPEKVEAVPVFLGIKAEKINLHRFANQLRITGPIIYASREDVPLGRYHTLTVEPGTVITIQKEKWKNYHIERLKEAIESSKKARVMIVAIEDGEAEIAIVREYGLDFVGSITYNISGKRYNIKRDDEEKKFFHEVAKSMEELMKRENIEKAIVAGPGFYKENFVNFLRENYPELAKKVVTDDTSMGGRTGIYEVIKRGTVDKVYTESRISKEIKLVEKVIEEIAKNGLVAYGLKEVEEATNYGAVETLIVLDSLLKGELREKIEELMELARNLRASVVVVSSEHEGGDKLKALGGIAALLRFKIK | 
6 |  | binds | SEEEALAGLSALFG (domain or fragment, P. horikoshii, C-terminal 14 residues of P. horikoshii ribosomal stalk protein aP1; made by removing residues 61-94 from pMAL-c4x-aP1[61-108]; the 14 residues are identical in both species; Vector pMAL-c4x; also called MBP-PfuP1C14; not shown: MBP, N-terminal, kept) [maltose-binding protein fused to the C-terminal 14 amino acid sequence of PhoP1 (MBP-PhoP1C14)] | 
